Laboratory results: EP3623383A1 (Deutsches Krebsforschungszentrum, Stiftung des öffentlichen …, dated 2020)

T1: His tagged, recombinant FLT3 protein (Sino Biologicals) (human, UniProt P36888 27-541, limits assumed)
T1 construct: also called soluble recombinant FLT3 protein; not shown: His tag
T1 sequence (looked up): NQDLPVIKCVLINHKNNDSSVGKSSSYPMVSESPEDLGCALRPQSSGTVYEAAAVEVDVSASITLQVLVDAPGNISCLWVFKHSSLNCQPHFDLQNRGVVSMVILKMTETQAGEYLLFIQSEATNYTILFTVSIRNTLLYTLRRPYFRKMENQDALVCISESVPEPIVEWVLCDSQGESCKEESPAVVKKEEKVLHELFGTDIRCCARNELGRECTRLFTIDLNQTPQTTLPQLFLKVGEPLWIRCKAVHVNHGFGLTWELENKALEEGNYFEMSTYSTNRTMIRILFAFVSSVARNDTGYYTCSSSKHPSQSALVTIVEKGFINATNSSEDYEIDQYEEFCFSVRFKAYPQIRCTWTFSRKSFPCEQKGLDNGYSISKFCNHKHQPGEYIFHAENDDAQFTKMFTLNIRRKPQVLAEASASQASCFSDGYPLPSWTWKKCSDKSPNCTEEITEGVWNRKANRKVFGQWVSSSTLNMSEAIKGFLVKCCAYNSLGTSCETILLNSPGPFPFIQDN


Key:
[1] = biological target: T1, His tagged, recombinant FLT3 protein …; test: SPR (Biacore X); antibody captured on protein A chip, His-tagged FLT3 in solution
[2] = biological target: T2, CD3 as expressed on Jurkat cells (CD3+) (human, UniProt P07766 23-207); test: flow cytometry on CD3+ Jurkat cells; value told of the CD3 binding part shared by V1 to V5
T2 construct: whole, on cells; CD3 is a complex of several chains; also called Jurkat cells expressing CD3
T2 sequence (P07766 23-207): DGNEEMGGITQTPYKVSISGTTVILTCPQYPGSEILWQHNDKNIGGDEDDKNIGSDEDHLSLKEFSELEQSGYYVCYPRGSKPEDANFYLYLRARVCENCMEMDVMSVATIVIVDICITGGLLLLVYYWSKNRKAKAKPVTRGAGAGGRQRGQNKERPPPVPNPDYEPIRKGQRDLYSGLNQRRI

| Binder | Kd [1] [nM] | koff [1] [s⁻¹] | kon [1] [M⁻¹ s⁻¹] | EC50 [2] [nM] |
| --- | --- | --- | --- | --- |
| V2-V6 (CC-2 variant 2, bispecific FLT3xCD3 IgGsc antibody) (bispecific antibody, IgGsc format, Fc-attenuated; also called Version 2; Humanized 4G8 FLT3 variable region Variant 2 with V6 CD3 scFv) heavy: QVQLVQSGAEVKKPGGSLRLSCAASGYTFTSYWMHWVRQAPGQGLEWIGEIDPSDSYTDYAQKFKDRVTISRDTSKNTLYLQLSSLRAEDTAVYYCARAITTTPFDFWGQGTLVTVSSASTKGPSVFPLAPSSKSTSGGTAALGCLVKDYFPEPVTVSWNSGALTSGVHTFPAVLQSSGLYSLSSVVTVPSSSLGTQTYICNVNHKPSNTKVDKKVEPKSCDKTHTCPPCPAPPVAGPSVFLFPPKPKDTLMISRTPEVTCVVVGVSHEDPEVKFNWYVDGVEVHNAKTKPREEQYNSTYRVVSVLTVLHQDWLNGKEYKCKVSNKQLPSPIEKTISKAKGQPREPQVYTLPPSRDELTKNQVSLTCLVKGFYPSDIAVEWESNGQPENNYKTTPPVLDSDGSFFLYSKLTVDKSRWQQGNVFSCSVMHEALHNHYTQKSLSLSPGKSGDIQMTQSPSSLSASVGDRVTITCRASQDIRNYLNWYQQKPGKAPKLLIYYTSRLESGVPSRFSGSGSGTDYTLTISSLQPEDFATYYCQQGNTLPWTFGQGTKVEIKGGGGSGGGGSGGGGSEVQLVESGGGLVQPGGSLRLSCAASGYSFTGYTMNWVRQAPGKGLEWVALINPYKGVSTYNQKFKDRFTISVDKSKNTAYLQMNSLRAEDTAVYYCARSGYYGDSDWYFDVWGQGTLVTVSS light: EIVMTQSPATLSVSPGERATLSCRASQSISNNLHWYQQKPGQAPRLLIKYASQSISGIPARFSGSGSGTEFTLTISSLQSEDFAVYFCQQSNTWPYTFGGGTKLEIKTVAAPSVFIFPPSDEQLKSGTASVVCLLNNFYPREAKVQWKVDNALQSGNSQESVTEQDSKDSTYSLSSTLTLSKADYEKHKVYACEVTHQGLSSPVTKSFNRGEC | 88000 | 0.0318 | 540 | ~10 |
| V5-V6 (CC-2 variant 5, bispecific FLT3xCD3 IgGsc antibody) (bispecific antibody, IgGsc format, Fc-attenuated; also called Version 5; Humanized 4G8 FLT3 variable region Variant 5 with V6 CD3 scFv) heavy: QVQLVQSGAEVKKPGGSLRLSCAASGYTFTSYWMHWVRQAPGQGLEWIGEIDPSDSYKDYNQKFKDRVTISRDTSKNTLYLQLSSLRAEDTAVYYCARAITTTPFDFWGQGTLVTVSSASTKGPSVFPLAPSSKSTSGGTAALGCLVKDYFPEPVTVSWNSGALTSGVHTFPAVLQSSGLYSLSSVVTVPSSSLGTQTYICNVNHKPSNTKVDKKVEPKSCDKTHTCPPCPAPPVAGPSVFLFPPKPKDTLMISRTPEVTCVVVGVSHEDPEVKFNWYVDGVEVHNAKTKPREEQYNSTYRVVSVLTVLHQDWLNGKEYKCKVSNKQLPSPIEKTISKAKGQPREPQVYTLPPSRDELTKNQVSLTCLVKGFYPSDIAVEWESNGQPENNYKTTPPVLDSDGSFFLYSKLTVDKSRWQQGNVFSCSVMHEALHNHYTQKSLSLSPGKSGDIQMTQSPSSLSASVGDRVTITCRASQDIRNYLNWYQQKPGKAPKLLIYYTSRLESGVPSRFSGSGSGTDYTLTISSLQPEDFATYYCQQGNTLPWTFGQGTKVEIKGGGGSGGGGSGGGGSEVQLVESGGGLVQPGGSLRLSCAASGYSFTGYTMNWVRQAPGKGLEWVALINPYKGVSTYNQKFKDRFTISVDKSKNTAYLQMNSLRAEDTAVYYCARSGYYGDSDWYFDVWGQGTLVTVSS light: EIVMTQSPATLSVSPGERATLSCRASQSISNNLHWYQQKPGQAPRLLIKYASQSISGIPARFSGSGSGTEFTLTISSLQSEDFAVYFCQQSNTWPYTFGGGTKLEIKTVAAPSVFIFPPSDEQLKSGTASVVCLLNNFYPREAKVQWKVDNALQSGNSQESVTEQDSKDSTYSLSSTLTLSKADYEKHKVYACEVTHQGLSSPVTKSFNRGEC | 160 | 0.00449 | 29600 | ~10 |
| V1-V6 (CC-2 variant 1, bispecific FLT3xCD3 IgGsc antibody) (bispecific antibody, also called Version 1; Humanized 4G8 FLT3 variable region Variant 1 with V6 CD3 scFv) heavy: QVQLVQSGAEVKKPGGSLRLSCAASGYTFTSYWMHWVRQAPGQGLEWIGEIDPSDSYTDYAQKFKDRVTISRDTSKNTLYLQLSSLRAEDTAVYYCARAITTTPFDFWGQGTLVTVSSASTKGPSVFPLAPSSKSTSGGTAALGCLVKDYFPEPVTVSWNSGALTSGVHTFPAVLQSSGLYSLSSVVTVPSSSLGTQTYICNVNHKPSNTKVDKKVEPKSCDKTHTCPPCPAPPVAGPSVFLFPPKPKDTLMISRTPEVTCVVVGVSHEDPEVKFNWYVDGVEVHNAKTKPREEQYNSTYRVVSVLTVLHQDWLNGKEYKCKVSNKQLPSPIEKTISKAKGQPREPQVYTLPPSRDELTKNQVSLTCLVKGFYPSDIAVEWESNGQPENNYKTTPPVLDSDGSFFLYSKLTVDKSRWQQGNVFSCSVMHEALHNHYTQKSLSLSPGKSGDIQMTQSPSSLSASVGDRVTITCRASQDIRNYLNWYQQKPGKAPKLLIYYTSRLESGVPSRFSGSGSGTDYTLTISSLQPEDFATYYCQQGNTLPWTFGQGTKVEIKGGGGSGGGGSGGGGSEVQLVESGGGLVQPGGSLRLSCAASGYSFTGYTMNWVRQAPGKGLEWVALINPYKGVSTYNQKFKDRFTISVDKSKNTAYLQMNSLRAEDTAVYYCARSGYYGDSDWYFDVWGQGTLVTVSS light: not shown | 63000 | 0.022 | 489 | ~10 |
| V3-V6 (CC-2 variant 3, bispecific FLT3xCD3 IgGsc antibody) (bispecific antibody, also called Version 3; Humanized 4G8 FLT3 variable region Variant 3 with V6 CD3 scFv) heavy: QVQLVQSGAEVKKPGASVKVSCKASGYTFTSYWMHWVRQAPGQGLEWIGEIDPSDSYKDYNQKFKDRVTMTRDTSTSTVYMELSSLRSEDTAVYYCARAITTTPFDFWGQGTTVTVSSASTKGPSVFPLAPSSKSTSGGTAALGCLVKDYFPEPVTVSWNSGALTSGVHTFPAVLQSSGLYSLSSVVTVPSSSLGTQTYICNVNHKPSNTKVDKKVEPKSCDKTHTCPPCPAPPVAGPSVFLFPPKPKDTLMISRTPEVTCVVVGVSHEDPEVKFNWYVDGVEVHNAKTKPREEQYNSTYRVVSVLTVLHQDWLNGKEYKCKVSNKQLPSPIEKTISKAKGQPREPQVYTLPPSRDELTKNQVSLTCLVKGFYPSDIAVEWESNGQPENNYKTTPPVLDSDGSFFLYSKLTVDKSRWQQGNVFSCSVMHEALHNHYTQKSLSLSPGKSGDIQMTQSPSSLSASVGDRVTITCRASQDIRNYLNWYQQKPGKAPKLLIYYTSRLESGVPSRFSGSGSGTDYTLTISSLQPEDFATYYCQQGNTLPWTFGQGTKVEIKGGGGSGGGGSGGGGSEVQLVESGGGLVQPGGSLRLSCAASGYSFTGYTMNWVRQAPGKGLEWVALINPYKGVSTYNQKFKDRFTISVDKSKNTAYLQMNSLRAEDTAVYYCARSGYYGDSDWYFDVWGQGTLVTVSS light: not shown | 87000 | 0.0233 | 276 | ~10 |
| V4-V6 (CC-2 variant 4, bispecific FLT3xCD3 IgGsc antibody) (bispecific antibody, IgGsc format, Fc-attenuated; also called Version 4; variant V4) heavy: QVQLVQSGAEVKKPGASVKVSCKASGYTFTSYWMHWVRQAPGQGLEWIGEIDPSDSYKDYNQKFKDRVTMTRDTSTSTVYMELSSLRSEDTAVYYCARAITTTPFDFWGQGTTVTVSSASTKGPSVFPLAPSSKSTSGGTAALGCLVKDYFPEPVTVSWNSGALTSGVHTFPAVLQSSGLYSLSSVVTVPSSSLGTQTYICNVNHKPSNTKVDKKVEPKSCDKTHTCPPCPAPPVAGPSVFLFPPKPKDTLMISRTPEVTCVVVGVSHEDPEVKFNWYVDGVEVHNAKTKPREEQYNSTYRVVSVLTVLHQDWLNGKEYKCKVSNKQLPSPIEKTISKAKGQPREPQVYTLPPSRDELTKNQVSLTCLVKGFYPSDIAVEWESNGQPENNYKTTPPVLDSDGSFFLYSKLTVDKSRWQQGNVFSCSVMHEALHNHYTQKSLSLSPGKSGDIQMTQSPSSLSASVGDRVTITCRASQDIRNYLNWYQQKPGKAPKLLIYYTSRLESGVPSRFSGSGSGTDYTLTISSLQPEDFATYYCQQGNTLPWTFGQGTKVEIKGGGGSGGGGSGGGGSEVQLVESGGGLVQPGGSLRLSCAASGYSFTGYTMNWVRQAPGKGLEWVALINPYKGVSTYNQKFKDRFTISVDKSKNTAYLQMNSLRAEDTAVYYCARSGYYGDSDWYFDVWGQGTLVTVSS light: EIVMTQSPATLSVSPGERATLSCRASQSISNNLHWYQQKPGQAPRLLIKYASQSISGIPARFSGSGSGTEFTLTISSLQSEDFAVYFCQQSNTWPYTFGGGTKLEIKTVAAPSVFIFPPSDEQLKSGTASVVCLLNNFYPREAKVQWKVDNALQSGNSQESVTEQDSKDSTYSLSSTLTLSKADYEKHKVYACEVTHQGLSSPVTKSFNRGEC | 480 | 0.00887 | 18800 | ~10 |
